The text below walks through data of article PMC2931692.

The assay addresses soluble HA of A/Aichi/2/68 (H3N2) modified at the C-terminus with the GCN4pII trimerization repeat (influenza A virus A/Aichi/2/68 (H3N2) | Saccharomyces cerevisiae) (UniProt P03437). Description: cross-linking.

As for “soluble HA of A/Aichi/2/68 (H3N2) modified at the C-terminus with the GCN4pII trimerization repeat (from UniProt P03437 17-528)”, the stoichiometry N came out at 3.
